Test results taken from patent publication CN113999301A (JIANGSU XINTRUM PHARMACEUTICALS CO LTD, dated 2022).

Target: 新冠原始假病毒的S蛋白 (FNV-SARS-CoV-2-S) (SARS-CoV-2, UniProt P0DTC2 14-1273)
Experiment: cell-based or functional assay

B1: 抗SARS-CoV-2(COVID-19)S蛋白RBD单克隆抗体B15-5-B3 (antibody, V domains shown)
VH: EVKFEESGGGLVQPGGSMKLSCAASGFTFSDAWMDWVRQSPEKGLEWVAEIRNKANNHATYYAESVKGRFTISRDDSKSSVYLQMNSLRAEDTGIYYCTPYDYAYPWFWGQGTLVTVSA
VL: EIVLTQSPTTMAASPGEKITITCSASSSISSHYLHWYQQKPGFSPKLLIYRSYSLASGFPGRFSGSGSGTSFSLSIGTMEAEDVATYYCQQGSSRITPFGGGTKLEIK
- 假病毒中和效应 EC50 (luciferase, HEK293-ACE2 cells): 0.0369 µg/mL
